# According to patent US20110195494A1 (Boehringer Ingelheim, published 2011):
# B1: DLLBII101G08 (VHH)
# VHH: EVQLVESGGGLVQAGGSLRLSCAASGRTFSSYAMAWFRQAPGKEREFVAAIRWSGGTAYYADSVQGRFTISRDNAKNTVYLQMNSLKPEDTAVYYCANRAADTRLGPYEYDYWGQGTQVTVSS
# notes: also called DLLBII101G8; 101G8; not shown: C-terminal c-myc tag and His6 tag
# Key:
# [1] = target: T1, full length mouse DLL4 on overexpressing CHO or HEK293 cells (mouse, UniProt Q9JI71 27-686); experiment: FACS on HEK293-mDLL4 cells
# T1 construct: whole, on cells; also called CHO-mDLL4; mDLL4
# Method: In order to determine the cynomologus cross-reactivity of the VHHs, a FACS binding experiment is performed. Cynomolgus DII4 expressing HEK293 cells (transient or stable transfection) are used for a titration binding experiment of the VHHs. After a 30 minutes incubation on ice, all samples are washed and detection is performed by applying anti-c-myc˜Alexa647 (Santa Cruz Biotechnology, Santa Cruz, Calif., USA). Human and mouse DII4 overexpressing HEK293 cells are taken as reference. The mean MCF value is determined on the FACS Array and used for calculation of the EC₅₀ value (see FIG. 9).
# [2] = target: T2, full length human DLL4 on overexpressing CHO or HEK293 cells (human, UniProt Q9NR61 27-685); experiment: FMAT, hNotch1/Fc on CHO-hDLL4, periplasmic extract
# T2 construct: also called CHO-hDLL4; HEK293-hDII4
# From the text: (§1) All calculations are based on the FL1 total signal which comprises the average of the fluorescence per well times the number of counts per well.
# [3] = target: T1, full length mouse DLL4 on …; experiment: FMAT, hNotch1/Fc on CHO-mDLL4, periplasmic extract
# From the text: as §1
# T1 sequence (Q9JI71 27-686): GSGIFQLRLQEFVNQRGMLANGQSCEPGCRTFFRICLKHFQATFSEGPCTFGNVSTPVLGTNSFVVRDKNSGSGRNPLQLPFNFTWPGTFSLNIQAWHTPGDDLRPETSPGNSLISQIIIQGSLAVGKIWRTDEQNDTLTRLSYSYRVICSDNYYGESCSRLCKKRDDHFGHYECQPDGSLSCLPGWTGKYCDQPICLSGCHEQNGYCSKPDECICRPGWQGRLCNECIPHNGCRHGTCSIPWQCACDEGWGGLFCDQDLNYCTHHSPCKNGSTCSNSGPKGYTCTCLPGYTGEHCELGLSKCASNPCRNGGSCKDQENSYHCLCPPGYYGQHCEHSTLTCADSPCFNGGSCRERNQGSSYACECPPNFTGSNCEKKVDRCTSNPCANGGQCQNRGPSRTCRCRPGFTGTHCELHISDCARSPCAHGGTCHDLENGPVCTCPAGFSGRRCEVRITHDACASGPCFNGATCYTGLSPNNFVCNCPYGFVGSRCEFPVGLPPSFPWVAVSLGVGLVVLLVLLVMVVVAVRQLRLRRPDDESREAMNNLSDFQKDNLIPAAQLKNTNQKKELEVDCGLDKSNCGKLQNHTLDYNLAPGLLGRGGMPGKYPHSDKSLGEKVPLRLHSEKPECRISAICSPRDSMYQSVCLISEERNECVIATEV
# T2 sequence (Q9NR61 27-685 limits assumed): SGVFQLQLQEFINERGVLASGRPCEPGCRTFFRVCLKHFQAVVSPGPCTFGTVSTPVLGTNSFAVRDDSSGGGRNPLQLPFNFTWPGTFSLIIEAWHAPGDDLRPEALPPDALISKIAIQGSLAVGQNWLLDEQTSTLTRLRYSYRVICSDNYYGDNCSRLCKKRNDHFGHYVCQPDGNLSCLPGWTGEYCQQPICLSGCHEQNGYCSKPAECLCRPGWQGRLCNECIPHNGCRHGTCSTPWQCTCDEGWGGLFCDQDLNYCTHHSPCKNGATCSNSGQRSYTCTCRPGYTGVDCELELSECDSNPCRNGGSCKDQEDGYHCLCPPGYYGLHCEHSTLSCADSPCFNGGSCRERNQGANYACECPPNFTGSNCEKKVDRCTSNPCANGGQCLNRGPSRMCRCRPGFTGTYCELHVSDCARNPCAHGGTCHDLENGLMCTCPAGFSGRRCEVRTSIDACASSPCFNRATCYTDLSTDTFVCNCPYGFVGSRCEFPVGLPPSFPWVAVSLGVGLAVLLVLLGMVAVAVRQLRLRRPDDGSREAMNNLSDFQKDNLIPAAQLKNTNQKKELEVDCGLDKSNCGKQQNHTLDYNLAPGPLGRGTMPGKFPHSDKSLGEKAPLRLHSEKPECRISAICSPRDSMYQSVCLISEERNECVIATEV
binder,measurement,setting,value
B1,EC50 (read off the curve),[1],37 to 40 nM
same,FMAT hDLL4 % inhibition,[2],91%
same,FMAT mDLL4 % inhibition,[3],92%
